The data set in a line: label from the status in PepcDB records.
In the case of “MAGAITHDHAAAAQGRQGGPLIVTEDVELLDDLLRLCAAAGARPEVHHTVPDGRGTWEAAPLVLVGDDAARRVRGAARRRGVVLVGRDQDDSGVWRRAVEIGADHVLLLPDGEQWLVDRIADVAEGVGRPALTVGVIGGRGGAGASTLACALAVTSARQGRRTLLVDADPLGGGLDVLLGGETAEGLRWPAFAASRGRVGGGALEESLPELHALRVLSWDRGDAVAVPPQAVRAVLAAARRRGGAVVVDLPRRVDEGAAEALAQVDLGVLVVPAELRAIAAAARVASAAGMVLGDLRVAVRGPYAPGLDDREVARLLGLPLLGEVPAEPPVPDGGVPPGGAARGPLARFCAVFWDRALVEAGGVLEHHHHHH”, the protein production result is listed as “failed”.

Turning to “MAGATDQRRQEVLRAIVADYIASQEPVGSKALLERHNLKVSSATIRNDMAVLESEGYIVQQHASSGRIPTEKAYRTFVDSINDIKPLSVAERRAILGFLERGVDLEDVLKRSVQLLSQLTRQAAVIQLPNLNVSRVKHCE”, the protein production result is given as “failed”.

For the sequence “MAGEFRLLSHLCSRGSKVGELAQDTRTSLKTSWYLLGPAFVAAIAYVDPGNVAANVSSGAQFGYLLLWVIVAANVMAALVQYLSAKLGLVTGRSLPEAIGKRMGRPARLAYWAQAEIVAMATDVAEVIGGAIALRIMFNLPLPIGGIITGVVSLLLLTIQDRRGQRLFERVITALLLVIAIGFTASFFVVTPPPNAVLGGLAPRFQGTESVLLAAAIMGATVMPHAVYLHSGLARDRHGHPDPGPQRRRLLRVTRWDVGLAMLIAGGVNAAMLLVAALNMRGRGDTASIEGAYHAVHDTLGATIAVLFAVGLLASGLASSSVGAYAGAMIMQGLLHWSVPMLVRRLITLGPALAILTLGFDPTRTLVLSQVVLSFGIPFAVLPLVKLTGSPAVMGGDTNHRATTWVGWVVAVMVSLLNVMLIYLTVTG”, the protein production entry is reported as “failed”.

For “MAGGPPNTKAEMEMSLAEELNHGRQGENQEHLVIAEMMELGSRSRGASQKKQKLEQKAAGSASAKRVWNMTATRPKKMGSQLPKPRMLRESGHGDAHLQEYAGNFQGIRFHYDRNPGTDAVAQTSLEEFNVLEMEVMRRQLYAVNRRLRALEEQGATWRHRETLIIAVLVSASIANLWLWMNQ”, the protein production result is recorded as “failed”.

Take “MAGKQQERVNVEGHELTLTNLNKIIYPETGTTKAEVLEYYAAVAPFLIPAAANRPVTRKRWVNGVGTAENPGQVFFQKNLEDSAPKWIPRAAIQHSDHTNVYPMVNNLATLTWMAQIASLEIHVPQWQVDPSGKPLRPDRFVLDLDPGPGAGLPECVEVAKLARSILQDMGMDPVPVTSGSKGIHLYTGLDGTLKSEQVSAFAKELARALESDHPELVVSDMKKSLRHGKVLVDWSQNSGNKTTIVPYSLRGKAHPTVAAPRTWRELSSPSLEHLDYVAVMKRVKTGKDHFAPISERHLPPHGEDENDDDGTAGSSSGTGRSRERVVTVENRLAKYVGMRDPGKTPEPFPSSSAVSASPQSAGSSSDQPKPGDPPPPGGIFVIQEHHARRYHLDLRLEHHGVLASWALPRGIPETPDRNNLAVHTEDHPMEYANFAGVIPKGEYGAGTMTIWDRGEYTCEKWRDGKEVIATLTGEPGGGLGGTKRFALINTGQNWLIHLMKEQPGGRRGTQPAANAAAPKSAPAQPQPQPMPNYSPMLATSGTTADLRGDDWLYELKWDGIRAIITGTESRIRLMSRNGNDLTAAYPELTDRACWPDGDFVADGEIVALGKGSRPDFGRLQLRMNLVKAADIERARATVPVQLMLFDLLYDDGTDLSGLPFHERRERLSGFAERWRVGCPLHLSAVLDHDVEDLMTSAAELGLEGVMAKKADSRYVIGRRSRSWIKLKLEQSQEVVVGGWRPGAGARAGTFGALLLGIPDGDKLHYVGRVGSGFKDWQLRDIMEKLEPLAIVESPFADIPREDAAGATWVSPELVAEVTFGEWTGPGRLRHPVWRGWRPDKSAGEVTLAGS”: the protein production entry was “failed”.

As for “MAGLAISPPLGLSFSSRTRNPKPTSFLSHNQRNPIRRIVSALQSPYGDSLKAGLSSNVSGSPIKIDNKAPRFGVIEAKKGNPPVMPSVMTPGGPLDLSSVLFRNRIIFIGQPINAQVAQRVISQLVTLASIDDKSDILMYLNCPGGSTYSVLAIYDCMSWIKPKVGTVAFGVAASQGALLLAGGEKGMRYAMPNTRVMIHQPQTGCGGHVEDVRRQVNEAIEARQKIDRMYAAFTGQPLEKVQQYTERDRFLSASEALEFGLIDGLLETEY”, the protein production result is listed as “not failed”.

For “MAGLFTPKDAAMNIAIVTINQENAAIASWLAAQDFSGCTLAHWQIEPQPVVAEQVLDAMVEQWQRTPADVVLFPPGTFGDELSTRLAWRLHGASICQVTSLDIPTVSMRKSHWGNALTATLQTEKRPLCLSLARQAGAAKNATLPSGMQQLNIVPGALPDWLVSTEDLKNVSRDPLAEARRVLVVGQGGEADNQEIVMLAEKLGAEVGYSRARVMNGGVDAEKVIGISGHLLAPEVCIVVGASGAAALMAGVRNSKFMVAINHDASAAVFSQADIGVVDDWKVVLEALVTNIHAEYQ”, the protein production entry was “failed”.

With “MAGLINKIGDALHIGGGNKEGEHKKEEEHKKHVDEHKSGEHKEGIVDKIKDKIHGGEGKSHDGEGKSHDGEKKKKKDKKEKKHHDDGHHSSSSDSDSD”, the protein production result is reported as “failed”.

For the sequence “MAGLLSGLPMTSALVMLFLSLEQGAVFASMAVPGALAGLAAIQATYLFYFLVTRRVSAVAGCVLALALYGATAFLMNLSGSLALSILFTLLMVALIIVATSKQTPPAAAPYVALPRWVIPMRMLTATLLLLAITASATWLGPVVSGLLAPIPVIAWPLAVFVHVQGGRYELAAIIRGNAIGAVGVLSFYLTLRYSLLQWGALLSITTAVLLAVVVTAVLARLLAKR”, the protein production entry was “failed”.

For the sequence “MAGQTEQVLNGVLEDIEHGRLGPGDLLEEAALTERHGVSRTPVREALIQLETQGLIRRLPRKGAVVFKPTLEEFLAILEVHARLEGQAAGLAARRMNATQAAELEAVVAACEAHARDKGDGDPFGYYRLNLRFHETVALGAGNPYLVEMIKTHARKLLAYYRARYSYPGSIPASAREHRQIATLIFDRRREEAEAAMIRHVQFDQVTVMDLLAALG”, the protein production entry is “failed”.

In the case of “MAGRQPGGAAMKALLHGIAEGNGRTLRNLLGLLIFIGGGYLLGRHALLLAELNLPAPIVLALKGGLLCAFGTALGAMPVLVVKTMPARLSDALLGFGAGVMLSATAFSLIMPALSAAGDLGYSKFGAGFLVSFGLAVGVMGLFILGRLMPDVHPGCEGAPLSGGIPPRILLFVTAIVLHNIPEGMAVGVSAGAGLDEANGLALGIALQDVPEGLVVALVLAGVGMSRFKAMLVGAASGLVEPLFAVLCAWLVGLSALLLPWGLAAAAGAMLFVVTHEIIPESHRQGHAAEATLGLVFGFCLMMVLDTALG”, the protein production entry is listed as “failed”.

As for “MAGSHAGTLRVLQAVDTELTADSVEWCPVEGYQHLLACGTYQLRAPRDQPALDGSEPQVRLGRLYLFSFSEHNTAKPLLEVQRRDSSAVLDMKWCHIPVSGHVLLGLANASGSIGLLRLMECENNSYTLQPISSLALDENCLSLSMDWSTGKSVRAREQPLKIISSDSKGQLHLLMVNEGTAELQLVASWPAHHFEAWIAAFNYWQTELVYSGGDDCLLRGWDTRMLGTPVFTSKRHCMGVCSIQSSPHQEHILATGSYDEHVLLWDTRNIRQPLADVPVQGGVWRLKWHPVHHHLLLAACMHNGFKILNCQKAIEEKQDITVLTSHEMPNSLVYGADWSWLFHSMKPTPTWFFDQNDMGVKAADHSSLKVTEEPPIHSQEQTMDRQVEGPANAHTRAELKASLLPLTEDMKNSKDCSSSSVKTRDLSHCSGGQSFDNSLLATCSFYDHVLHLWKWETNQARTLCSGTGCDLGSADH”, the protein production entry is on record as “failed”.

As for “MAHEGEQFIKDIQREYVDFLDDEEDQGIYAGHVKDMIAEKSKRLIVNVNDLKRKNPQRALGLLSNAADEQLAFGRALKEYASTVDPGYAKMHEDLFVGFEGCFGNRHVTPRSLTSIYLGNMVCVEGIVTKVSLIRPKVVRSVHYCPNTRKVMERKYTDLTSFEAVPSGAAYPTKDEDGNLLETEYGLSVYKDHQTLTIQEMPEKAPAGQLPRSVDIVCDDDLVDRCKPGDRVQIVGSYRCLPGKRGGYTSGTFRTVLLANNISLLSKESNLDISREDIMLCKKLAKNNDIFELLSKSLAPSIHGHAYVKQAILCLLLGGVEKILPNGTRLRGDINVLLIGDPSVAKSQLLRYVLNTAPRAIPTTGRGSSGVGLTAAVTTDQETGERRLEAGAMVLADRGVVCIDEFDKMSDIDRTAIHEVMEQGRVTISKAGIHASLNARCSVLAAANPVYGRYDQYKTPMENIGLQDSLLSRFDLLFVMLDVIDSDVDQMISDHVVRMHRYRNPKEADGEPLSMGSSYADSLSFVSSSEEKKDTEVYEKYDALLHGKSRQRHEKILSVEFMRKYIHIAKCMKPKLGEQACEAIANEYSRLRSQEAVETDVARTQPITARTLETLIRLSTAHARARMSKSVTIDDAHAAIELVQFAYFKKVLDKDRPSKRRRNSGSDAEDDNGEASSQRSPSRRSKRTRTATVGADSDEEDIEPPQPDAGDLTRRETRRSLPARSVAMLMASPSSEEQSVATSTTEPAIISDARLGEFKNNLQRLFREAREQSLALARITTAINVGSQEPFTAGEIEAAVHRMTEDNQIMVADDIVFLI”, the protein production entry is “failed”.

“MAHPPQIRIPATYLRGGTSKGVFFRLEDLPESCRVPGEARDRLFMRVIGSPDPYAAHIDGMGGATSSTSKCVILSKSSQPGHDVDYLYGQVSIDKPFVDWSGNCGNLSTGAGAFALHAGLVDPARIPEDGICEVRIWQANIGKTIIAHVPVSGGQVQETGDFELDGVTFPAAEIVLEFLDPSDDGEDGGAIFPTGNLVDDLEVPGVGTFKATMINAGIPTVFVNAEEIGYRGTELREEINGDPQQLARFERIRVAGALRMGLIKTPEEAATRQHTPKIAFVAPPRDYRTASGKLVAAGDIDLLVRALSMGKLHHAMMGTAAVAIGTAAAIPGTLVNLAAGGGERSAVRFGHPSGTLRVGAEASQANGEWTVTKAIMSRSARILMEGWVRVPGDAF”: the protein production entry is on record as “not failed”.

As for “MAHSPLVSIVVPAHNAEATLARALDCLLDQEIVDWEAVIVDDASTDRTPAIIAGYVEHDARFRTLRSSTSSAAGARNSGISTARGHWLMFLDADDWVDASFLAKMLAALKAAPDAVAAYCGSRRVMPDGELTPSSISTEVAIQPFETFARQCAIRTHALLVDREAIVGLGGFDVSLRTCENWDLWQRLAHLGKRWVMVDEPLAFYRVSPNSLSRNSTQMLADAEIVIARGFSADPRVSHPASGQANGAISANGGTASEALAWFALWNAASDCGRGSRSIDPQALRALPAGRKWAREIAEVAIDGLMVGSLSVPAQLAARWGRFGGPLTELIIELGKVWDNPAAGRRVQYQLEQMLLDADDLAAPRRLARTLGIRVDVRNPNAIELPEGIDRIYAYLMMDGQIEAVVQFGVLGTVTRDHWIELIQNVVPAERLADSTARLAGRSTVPQEGAGADTSNTFAAEALLFTAERRSDPDSHFGKLAQLTAEARELVRSSAEPEQPPAVPRRARAADTNDRTAFWNSYFATEDPWNYGSLYEQEKYQRQLEILPAGPIGRVLELACAEGHFTRQLAPRVSHLTATDISAIAIERARARCGDQPNIEFGVLDFAADMLPGEMDLIVCSEVLYYLDDLADLRRITKKFTEALAPGGSFITAHAFVLRDNVERTGFDWNTFGAQAISETLAATEGLVLEQSIQTELYRIDRFRRLSPDDLVTEPMIDHAPIRAQIEIGVARNIIWGGARALRRDVARNEQRQRVPVLMYHSVSDDGPAALARFRLTPAGFGSQMAWLRANGFHAINSEQLEGCIANRQPFVGRPVLITFDDGFQNFADHAWPTLRANDLTAEVFLVTDLVGKGAQWDAHNGPPTQLMDAGTVRRLAGEGAFFGSHMATHRAIDGLSSSDLAAELLRSRMFIERWTGRPTTAFTAPFSVTDRRLGRLARECGYRIGFGARHGPADLDCDLIDLPRIEIRGDRSLDDFVATVEAVLKER”, the protein production entry is recorded as “failed”.

As for “MAHTVYENARIYTVNDQQPTASVLVVEQGKIIYVGGNDGAKQFKATAAELFDLEGKTVLPGFIESHAHPLEHHHHHH”, the protein production result is “failed”.

These data come from a protein production outcome set (Wang et al. 2014).
